Here are results for 2 molecules from patent US11198871B2, “Riboswitch-mediated regulatory control of gene expression in thermophilic bacteria” (priority 2019, dated 2021).

The subject of the series is sfGFP. In kind it is cell-based, Geobacillus thermoglucosidasius. The following applies: for fold change (reduction) of maximal normalized fluorescence: 0.25 mM guanosine versus none; for maximal normalized fluorescence: mid-exponential growth, 55° C. The procedure: To evaluate the T.s. riboswitches' regulatory activities, a thermophilic fluorescence reporter assay was used that included the use of super-folder green fluorescence protein (sfGFP) which is active in the aerobic thermophile, Geobacillus thermoglucosidasius (G.t.), at a growth temperature of 55° C. Both purine riboswitches from T.s. were inserted downstream of the pRp1S strong promoter respectively in plasmid pG1AK-sf such that the riboswitch controlled the expression of sfGFP once it was introduced into G.t. (see FIG. 2a and Table 1).
To trigger the regulatory response from the riboswitches, guanosine was used as the ligand as cells can import the compound and convert it into guanine enzymatically. […] As an additional control, a point mutation was introduced in the Tsac 2584 aptamer domain at position 74 (C74U). Position 74 is responsible for its interaction with guanine.
In an embodiment, and as depicted in FIG. 8, the normalized fluorescence of the cell culture is defined as: […]
To compare the normalized fluorescence between cultures growing with different ligand concentrations, the normalized fluorescence for each culture was averaged between the mid-log points where the OD was between 0.4 and 0.6.
G. thermoglucosidasius strains transformed with different plasmids were grown aerobically overnight in 5 ml TGP media (supplemental) with 12.5 μg/mL kanamycin at 55° C. and shaken at 200 rpm. The freshly grown overnight culture was used to inoculate 5 mL of fresh TGP media with kanamycin and incubated in the same condition for about 5 hrs when the cultures reached OD600 of about 1.0. This secondary growth culture was used to inoculate 5 ml of Defined Glucose Media (DG) with 250-fold dilution and was sub-aliquoted into a 96-well plate with 200 microliters per well where different concentrations of the effector ligand was added. The plate was incubated in a Greiner-Bio xxx plate reader and the OD600 and the fluorescence intensity (details of excitation and emission) was tracked for 24 hrs. To quantify the normalized fluorescence, the value of the raw fluorescence was taken when the cells were in mid-exponential phase (OD600 0.4-0.6) and divided by the optical density to normalize the fluorescence.

Read-outs that look alike come from different tables or passages of the source.

B1: Tsac 2588 (nucleic acid, listed as Thermoanaerobacterium saccharolyticum)
DNA: ATTGTGTCAGGACAAGTAAATAATAGCTCATATAATTCTGAGAATACGGCTCAGAAGTCTCTACCAGACAACCGTAAATTGTCTGACTATGAGTGAAAGTGTACCTGAGGGTTCCAGCCTTATTGTCCATGTGTAGAAAACAGTAAAGGCGTTCGGACCGAGCGGTACAGGCATTGTATTGCCACACCTGTGGGATAAAAGCCCGGGAGGATAGGTTTCACTCTATGTGTTGGAATCTATCATTCCGGGCTTGTTTATTTTTAAAATTCGTTTTTATTT
Take B1: the “fold change (reduction) of maximal normalized fluorescence” value is about 2.5 fold. The maximal normalized fluorescence (0.25 mM guanosine) was 15±0.1 fluorescence units. The “fluorescence in comparison to the control pG1AK parental plasmid” value (with guanosine) was “about 30%”. This molecule also had a maximal normalized fluorescence (without guanosine) of 38±1 fluorescence units.

B2: Tsac 2584 (nucleic acid, listed as Thermoanaerobacterium saccharolyticum)
DNA: ATTGTGTCAGGACAAGTAAATAATAGCTCATATAATTCTGAGAATACGGCTCAGAAGTCTCTACCAGACAACCGTAAATTGTCTGACTATGAGTGAAAGTGTACCTGAGGGTTCCAGCCTTATTGTCCATGTGTAGAAAACAGTAAAGGCGTTCGGACCGAGCGGTACAGGCATTGTATTGCCACACCTGTGGGATAAAAGCCCGGGAGGATAGGTTTCACTCTATGTGTTGGAATCTATCATTCCGGGCTTGTTTATTTTTAAAATTCGTTTTTATTT
Consider B2, for which the “fold change (reduction) of maximal normalized fluorescence” value is about 7 fold. The maximal normalized fluorescence (0.25 mM guanosine) came to 2.8±0.1 fluorescence units. Besides, the “guanosine-dependent repression of sfGFP” value (guanosine added, result in words) is on record as “tight repression”. The molecule further showed a maximal normalized fluorescence (without guanosine) of 20±2 fluorescence units.
